In paper PMC7007264:

Molecular target: Rad51-2A (Saccharomyces cerevisiae, UniProt P25454 1-400, S125A;S375A)
Test: EMSA

Rad51-2A, sequence (P25454 whole entry S125A/S375A): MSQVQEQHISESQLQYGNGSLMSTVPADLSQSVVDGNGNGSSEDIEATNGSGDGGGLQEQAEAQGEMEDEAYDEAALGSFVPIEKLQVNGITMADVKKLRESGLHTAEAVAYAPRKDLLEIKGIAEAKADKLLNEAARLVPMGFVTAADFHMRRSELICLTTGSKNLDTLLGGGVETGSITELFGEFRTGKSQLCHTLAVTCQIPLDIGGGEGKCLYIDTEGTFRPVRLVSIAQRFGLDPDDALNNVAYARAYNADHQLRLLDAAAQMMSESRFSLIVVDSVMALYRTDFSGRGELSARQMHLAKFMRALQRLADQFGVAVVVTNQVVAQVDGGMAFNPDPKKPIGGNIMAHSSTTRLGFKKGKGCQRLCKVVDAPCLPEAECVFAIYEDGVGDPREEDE

B1: ssDNA EMSA probe (ssDNA)
DNA: CGGGTGTCGGGGCTGGCTTAACTATGCGGCATCAGAGCAGATTGTACTGAGAGTGCACCATATGCGGTGTGAAATACCGCACAGATGCGT
Q: Does B1 bind?
A: no binding
